Laboratory results as given in article PMC9742495.

B1: Sar probe (dsDNA)
DNA 1: GGCGTCGAGCGCCAGGC
DNA 2: GCCTGGCGCTCGACGCC
B2: Sar mutated probe (dsDNA)
DNA 1: GTTCCATCTACTTCACC
DNA 2: GGTGAAGTAGATGGAAC
B3: hrpX motif (dsDNA)
DNA 1: GCTGCATACAATCGTGTGCGCCAGCGAGCTCGGCG
DNA 2: CGCCGAGCTCGCTGGCGCACACGATTGTATGCAGC
B4: hrpG motif (dsDNA)
DNA 1: TTTTGTCCTGGCGTCGGGCGCCAGGCGTCGGCGTC
DNA 2: GACGCCGACGCCTGGCGCCCGACGCCAGGACAAAA

Target: Sar (PXO_RS20790) (Xanthomonas oryzae pv. oryzae PXO99A, UniProt A0A0K0GPT9 1-242)
Assay: EMSA

Row | Binder | binding result
1 | B1 | binds
2 | B2 | no binding
3 | B3 | binds
4 | B4 | binds
